Assays:
[1] = target: T1, Aleuria aurantia lectin (AAL) (Aleuria aurantia, UniProt P18891); assay: ELISA analysis of binding between lectin AAL and glycoproteins or released N-glycans; details: for AAL binding: glycoprotein coated on plate; for EC50: glycoprotein coated on plate (10 μg/ml), AAL-biotin serial dilution
T1 sequence (P18891 1-313): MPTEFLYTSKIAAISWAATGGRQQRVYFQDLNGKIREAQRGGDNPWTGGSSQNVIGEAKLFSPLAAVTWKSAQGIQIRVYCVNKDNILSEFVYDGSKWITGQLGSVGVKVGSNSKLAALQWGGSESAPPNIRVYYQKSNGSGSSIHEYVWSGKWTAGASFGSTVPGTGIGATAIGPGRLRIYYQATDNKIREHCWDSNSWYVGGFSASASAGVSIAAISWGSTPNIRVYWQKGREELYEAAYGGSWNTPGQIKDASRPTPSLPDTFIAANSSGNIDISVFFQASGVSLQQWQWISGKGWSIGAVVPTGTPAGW
From the text: FIG. 9 ELISA analysis of the binding between lectin AAL and glycoproteins or released N-glycans. The glycoproteins or released N-glycans (tagged with Fmoc) were immobilized on the plates and probed by serial dilutions of the lectin. A) AAL binding with RNase B (20) and fucosylated RNase B (21); B) AAL binding with non-fucosylated glycoform of rituximab (28) and fucosylated rituximab glycoform (30); C) AAL binding with the PNGase F released high-mannose N-glycans released from 20 and 21; D) ALL binding with the PNGase F released complex type N-glycans from 28 and 30.
The glycoprotein (20, 21, 28 or 30) (10 μg/ml) in a phosphate buffer (pH 7.5) was coated onto a 96-well plate (UltraCruz®) at 4° C. for overnight. After wash twice, 2% bovine serum albumin in PBS containing Tween® 20 (PBST buffer) was added to block the plate for 2 h. Subsequently, after washed twice again, a serial dilution of AAL-biotin ranging from 0.1 μM to 1000 μM in PBST buffer was added and the plate was incubated for 1 h. After washing, peroxidase streptavidin (2 μg/mL) (Jackson ImmunoResearch Inc.) was added and incubated for 1 h. Finally, 100 μL of substrate, 3, 3′, 5, 5′-tetramethylbenzidine was added for signal development. The reaction was stopped by the adding 100 μL of 20% sulfuric acid (v/v). The absorbance at 450 nm was measured using SpectraMax M5 microplate reader (Molecular Devices). For the binding of the N-glycans, the Fmoc-labeled N-glycans released from 20, 21, 28 and 30 (1 μg/ml) were coated on the plate and the ELISA analysis was performed in the same manner as that of the glycoproteins.

physchem = format: physicochemical; details: buffer, pH 7.4
From the text: Initially, the D200 mutants were examined as potential glycosynthases using two types of activated fucosyl donors with opposite anomeric configuration as substrates. For nucleophile mutant such as D200G, a fucosyl fluoride with reversed anomeric configuration, β-fucosyl fluoride or β-fucosyl azide, should be applied to mimic the enzyme-substrate intermediate^52,53,67. However, β-glycosyl fluorides are quite unstable and are subjected to spontaneous hydrolysis in aq. solutions^42. Indeed, most successful glycosynthases have been derived so far from retaining β-glycosidases that take the α-glycosyl fluoride as donor substrate. […] Thus, the potential glycosylation activity of the nucleophilic mutants, including D200G, D200S, D200A, and D200S, were tested using both the β-glycosyl azide (1) and the β-glycosyl fluoride (2) as the donor substrates and the Fmoc-Asn(GlcNAc)-OH (4)^69 as the acceptor substrate (FIG. 3). The reactions were run with different amounts of enzymes and were monitored by reverse-phase HPLC analysis.

[2] = buffer; cited from earlier work
[3] = Hydrolysis of α-fucosyl fluoride in the absence of the GlcNAc acceptor; format: biochemical
[4] = Glycoligase (transfucosylation) activity on acceptor 4, pH and temperature profiles; format: biochemical; details: donor 3, acceptor 4, pH 7.5, 42° C.
Protocol: A) pH profile; B) temperature profile of its catalysis. […] The transglycosylation product was quantitated by HPLC analysis. To investigate temperature profile of AlfC α-fucosidase in transglycosylation reaction, a mixture of donor sugar 3 (20 mM), acceptor sugar (4) (10 mM) and enzyme AlfC E274G (0.2 mg/mL) was incubated in a PBS buffer (0.1 M, pH7.5) containing 5% DMSO. The reactions were carried out for 20 min at various temperatures, including 25° C., 30° C., 35° C., 40° C., 45° C., 50° C. and 55° C. The transglycosylation product was quantitated by HPLC analysis.
Next, the potential glyco-ligase activity was tested of the general acid/base residue mutants using the α-fucosyl fluoride (3) as the donor substrate (FIG. 3).

[5] = Transglycosylation kinetics of AlfC α-fucosidase mutants; format: biochemical; details: apparent; donor sugar 0.2 to 2.0 mM, acceptor 2.0 mM, sodium phosphate 0.1M pH 7.5, 42° C.
Protocol: The kinetic studies on transglycosylation were carried out at 42° C. in sodium phosphate (0.1 M, pH 7.5). The transglycosylation product was detected and quantitated by HPLC analysis. The concentration of the donor substrates (1-3) was varied from 0.2 to 2.0 mM, while that of the acceptor (4) was fixed (2 mM). KM and kcat values (strictly, apparent KM and kcat, as they were determined at a fixed, nonsaturating, co-substrate concentration) were determined by fitting the initial velocity curves to the Michaelis-Menten equation by nonlinear regression in GraFit.

rituximab = assay: Defucosylation of rituximab by wild-type AlfC α-fucosidase; format: biochemical
From the text: The potent transfucosylation activity of AlfC α-fucoligase towards glycopeptides and glycoproteins prompted further exploring of its application for glycoengineering of therapeutic monoclonal antibodies. Core fucosylation of the Fc domain N-glycans plays a pivotal role in modulating the functions of antibodies and their therapeutic efficacy^8,74. It was previously developed by the current inventors a chemoenzymatic Fc glycan remodeling method that consists of deglycosylation and glycosynthase-catalyzed glycan transfer to produce homogeneous Fc glycoforms^65,66,75. If the fucoligase mutant could act on intact antibody, then it would further expand the repertoire of the toolbox for antibody Fc glycan engineering. To test this possibility, rituximab (26) was selected as a model system. First, rituximab was deglycosylated with Endo-S followed by defucosylation with the wild type AlfC α-fucosidase to give the GlcNAc-rituximab (27) (FIG. 7). […] The non-fucosylated complex type glycoform (28) of rituximab was synthesized by the EndoS-D233Q catalyzed glycosylation with glycan oxazoline (24) as the donor, following previously published procedure^75. These two glycoforms (27 and 28) were used as potential substrates for examining the AlfC fucoligase mutants. […] The product was readily isolated by protein A affinity chromatography. To confirm the identity of the Fucα1,6GlcNAc-rituximab (29), the product was treated with protease IdeS which specifically hydrolyzes IgG antibody to release the monomeric Fc domain, and the released Fc was analyzed by ESI-MS. […] As described previously, Fucα1,6GlcNAc-rituximab (29) was an excellent substrate for EndoS-D233Q^75. Indeed, incubation of 29 with EndoS-D233Q and glycan oxazoline (24) gave the expected core-fucosylated complex type glycoform of rituximab (30) in excellent yield, further confirming that the 29 was the expected Fucα1,6GlcNAc-rituximab.
Finally, the direct fucosylation of the intact rituximab (28) was tested carrying the full size complex type Fc N-glycans. […]

For “28: non-fucosylated complex type glycoform of rituximab [compound 28]”, the AAL binding [1] was “did not show any detectable affinity”.

With “30: core-fucosylated complex type glycoform of rituximab [compound 30]” the AAL binding [1] was “specific recognition”, the EC50 [1] was 15 µM and the “affinity for AAL relative to core-fucosylated RNase B (21)” value ([1]; glycoproteins) was “about 17 fold”.

In the case of `C[C@@H]1O[C@H](F)[C@@H](F)[C@H](O)[C@@H]1O` [compound 2, 2-deoxy-2-fluoro-β-fucosyl fluoride], the half-life (physchem) is reported as 6 h.

For `C[C@@H]1O[C@H](F)[C@@H](O)[C@H](O)[C@@H]1O` [β-fucosyl fluoride], the “half-life (spontaneous hydrolysis)” value [2] is given as “ca. 20 min”.

B1: 21: core-fucosylated RNase B glycoforms carrying core fucosylated high-mannose glycans (protein, UniProt P61823 27-150, looked up)
Ribonuclease pancreatic: KETAAAKFERQHMDSSTSAASSSNYCNQMMKSRNLTKDRCKPVNTFVHESLADVQAVCSQKNVACKNGQTNCYQSYSTMSITDCRETGSSKYPNCAYKTTQANKHIIVACEGNPYVPVHFDASV
modifications: core-fucosylated high-mannose glycans
In the case of B1, the AAL binding [1] is reported as “specific binding” and the EC50 [1] is reported as 275 µM.

B2: 20: bovine ribonuclease B, natural glycoprotein with heterogeneous high-mannose type N-glycan (protein)
chain: KETAAAKFERQHMDSSTSAASSSNYCNQMMKSRNLTKDRCKPVNTFVHESLADVQAVCSQKNVACKNGQTNCYQSYSTMSITDCRETGSSKYPNCAYKTTQANKHIIVACEGNPYVPVHFDASV
For B2, the AAL binding [1] was “didn't show any binding”.

B3: E274G: Lactobacillus casei α1,6-fucosidase (AlfC) mutant at general acid/base residue E274 (protein)
chain: MNDNVAWFKQAKYGMMIHWGLYSLLAGEYRGESSSAYAEWIQSKFQIPNAEYGNLATAFNPLYFDAKKIVALAKQCGMQYLVVTTKHHDGFAMYHSKVDAYNVYDATPFHRDIIGELAEACQKAGLKFGLYYSQDLDWHDPNGGGYKSNDVETAGTTWDNSWDFPDEDQKNFDLCFDNKILPQIKEIMSNYGDIATAWFDVPMTLSEAQSQTIYDTVRELQPNCLINSRLGNGKYDFVSLGDNEIPKNKEDMNKTDVDYNEITGFKPSPLGLYGTAGTINDSWGFSYHDQNWKTPRTLYRYKQHLNDFGINYLLNVGLDPLGRVPMMAEENLLAAKALEDEANRL
For B3, the “hydrolysis of α-fucosyl fluoride” value [3] was “only hydrolyzed α-fucosyl fluoride slowly”, the “catalytic activity to transfer fucose to GlcNAc of acceptor 4” value [4] was “excellent catalysts for fucosylation” and the Km [5] was 250 ± 30 µM. The kcat [5] was 1.38 ± 0.15 × 10^2 min^−1.

B4: wild type AlfC: α1,6-fucosidase from Lactobacillus casei (AlfC), wild type (protein, listed as Lactobacillus casei)
chain: MNDNVAWFKQAKYGMMIHWGLYSLLAGEYRGESSSAYAEWIQSKFQIPNAEYGNLATAFNPLYFDAKKIVALAKQCGMQYLVVTTKHHDGFAMYHSKVDAYNVYDATPFHRDIIGELAEACQKAGLKFGLYYSQDLDWHDPNGGGYKSNDVETAGTTWDNSWDFPDEDQKNFDLCFDNKILPQIKEIMSNYGDIATAWFDVPMTLSEAQSQTIYDTVRELQPNCLINSRLGNGKYDFVSLGDNEIPKNKEDMNKTDVDYNEITGFKPSPLGLYETAGTINDSWGFSYHDQNWKTPRTLYRYKQHLNDFGINYLLNVGLDPLGRVPMMAEENLLAAKALEDEANRL
In the case of B4, the “hydrolysis of α-fucosyl fluoride” value [3] is reported as “could quickly hydrolyze the donor substrate”, the “hydrolytic (defucosylation) activity” value (rituximab; intact rituximab, before Endo-S treatment, listed as wild type AlfC α-fucosidase) is reported as “almost no activity” and the “hydrolytic (defucosylation) activity” value (rituximab; intact rituximab, before Endo-S treatment, listed as wild-type AlfC α-fucosidase) is reported as “unable to remove the fucose moiety”. The “hydrolytic (defucosylation) activity” value (rituximab; rituximab after Endo-S deglycosylation) was “good hydrolytic activity”.

B5: E274S: Lactobacillus casei α1,6-fucosidase (AlfC) mutant at general acid/base residue E274 (protein)
chain: MNDNVAWFKQAKYGMMIHWGLYSLLAGEYRGESSSAYAEWIQSKFQIPNAEYGNLATAFNPLYFDAKKIVALAKQCGMQYLVVTTKHHDGFAMYHSKVDAYNVYDATPFHRDIIGELAEACQKAGLKFGLYYSQDLDWHDPNGGGYKSNDVETAGTTWDNSWDFPDEDQKNFDLCFDNKILPQIKEIMSNYGDIATAWFDVPMTLSEAQSQTIYDTVRELQPNCLINSRLGNGKYDFVSLGDNEIPKNKEDMNKTDVDYNEITGFKPSPLGLYSTAGTINDSWGFSYHDQNWKTPRTLYRYKQHLNDFGINYLLNVGLDPLGRVPMMAEENLLAAKALEDEANRL
In the case of B5, the “hydrolysis of α-fucosyl fluoride” value [3] is reported as “only hydrolyzed α-fucosyl fluoride slowly”, the “catalytic activity to transfer fucose to GlcNAc of acceptor 4” value [4] is reported as “excellent catalysts for fucosylation” and the Km [5] is reported as 260 ± 30 µM. For the same molecule, the kcat [5] was 2.42 ± 0.14 × 10^2 min^−1.
